Measured values reported in patent US20180072772A1 (CALIFORNIA INSTITUTE OF TECHNOLOGY, published 2018).
Primed or numbered codes have the meaning given here. Where no end group is shown, it is not given here. [ ]: non-standard residue; d: D form. The star is where a group is joined. Biotin = O=C1N[C@H]2[C@H](CS[C@H]2CCCCC(=O)*)N1; Lys(N3) = [N-]=[N+]=NCCCC[C@H](N)C(=O)O; dPra = C#CC[C@@H](N)C(=O)O; PEG5″ = not defined here; PEG5′ = PEG5 linker

Experiments:
[1] = target: E17K GST-PH Domain (Homo sapiens (Human)) (UniProt P31749); experiment: ELISA, biotinylated ligand on streptavidin plate, GST-PH Domain titrated, anti-GST detection
[2] = target: E17K GST-PH Domain (Homo sapiens (Human)) (UniProt P31749); experiment: ELISA: biotinylated triligand candidate on streptavidin plate, GST-PH Domain titrated, anti-GST-HRP detection
[3] = target: 6His-PEG5-Mut 33mer Fragment (E17K 33-mer epitope without alkyne click handle); experiment: fluorescence polarization, in solution
6His-PEG5-Mut 33mer Fragment (E17K 33-mer epitope without alkyne click handle), sequence (peptide, as listed by the source E17K E17K): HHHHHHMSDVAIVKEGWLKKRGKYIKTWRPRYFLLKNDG

[4] = target: 6His-PEG5-WT 33mer Fragment (wildtype 33-mer epitope without alkyne click handle); experiment: fluorescence polarization, in solution
6His-PEG5-WT 33mer Fragment (wildtype 33-mer epitope without alkyne click handle), sequence (peptide, as listed by the source): as the sequence (peptide, as listed by the source E17K E17K) above, with K23E counted along it

[5] = target: full length Akt1E17K (Homo sapiens (Human)) (UniProt P31749); experiment: fluorescence polarization, in solution
[6] = target: full length Akt1E17K (Homo sapiens (Human)) (UniProt P31749); experiment: fluorescence polarization KD values compared
[7] = target: full length Akt1E17K (Homo sapiens (Human)) (UniProt P31749); experiment: fluorescence polarization in solution, full-length Akt1 titrated
[8] = target: T1, GFP-tagged E17K PH Domain protein (Homo sapiens (Human), UniProt P31749 1-124); experiment: confocal imaging of HEK-293T cells expressing GFP-PH Domain
T1 construct: Cloned from pUNO-hAKT1 and mutated; also called GFP-E17K PHD; E17K mutant GFP-PH domain; not shown: GFP of the TOPO C-terminal GFP mammalian vector
T1 chain: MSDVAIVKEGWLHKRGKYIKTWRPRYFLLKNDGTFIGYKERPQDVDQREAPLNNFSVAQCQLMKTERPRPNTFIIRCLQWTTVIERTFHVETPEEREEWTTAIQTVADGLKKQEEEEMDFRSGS

B1: Biotin-PEG5-ivdae(SEQ ID NO: 78)-yleaf(SEQ ID NO: 43)-yksy(SEQ ID NO: 76) triligand (peptide)
peptide 1: [dI][dV][dD][dA][dE]
peptide 2: [Lys(N3)][dY][dL][dE][dA][dF][dPra]
peptide 3: [dY][dK][dS][dY]
modifications: not fully specified (N-terminus, C-terminus); also: triazole to a chain's N/C-terminus, triazole to a chain's N/C-terminus
- EC50 [1]: 45 nM

B2: triligand candidate iryrn (iryrn-yleaf-yksy) (peptide)
peptide 1: [dI][dR][dY][dR][dN]
peptide 2: [Lys(N3)][dY][dL][dE][dA][dF][dPra]
peptide 3: [dY][dK][dS][dY]
modifications: not fully specified (N-terminus, C-terminus); also: triazole to a chain's N/C-terminus, triazole to a chain's N/C-terminus
- EC50 (read off the curve) [2]: 10 nM

B3: yleaf(SEQ ID NO: 43)-Tz-yksy(SEQ ID NO: 76) biligand, N-terminal PEG5-biotin (peptide)
peptide 1: [dY][dL][dE][dA][dF]
peptide 2: [dY][dK][dS][dY]
modifications: not fully specified (N-terminus, C-terminus, bridges); also: triazole to a chain's N/C-terminus
- EC50 [1]: 19 nM

Binder: {Biotin-PEG5′}-[dY][dL][dE][dA][dF] (not fully specified (C-terminus)) [Biotin-PEG5-yleaf(SEQ ID NO: 43)-Pra anchor ligand]
- EC50 [1]: 61 nM

Binder: [dY][dL][dE][dA][dF] (also: fluorescence polarization label not described) [yleaf (SEQ ID NO: 43) anchor ligand 4]
- Kd [3]: 328 nM
- Kd [4]: 2800 nM
- Kd [5]: 54 nM
- selectivity for E17K relative to WT (fold (E17K:WT)) [6]: 10

B4: triligand 9 (ivdae-yleaf-yksy, form used in fluorescence polarization) (peptide)
peptide 1: [dI][dV][dD][dA][dE]
peptide 2: [dY][dL][dE][dA][dF]
peptide 3: [dY][dK][dS][dY]
modifications: not fully specified (N-terminus, C-terminus); also: fluorescence polarization label, not described, triazole to a chain's N/C-terminus, triazole to a chain's N/C-terminus
- EC50 (read off the curve) [7]: 100 nM

B5: PEG5-TAT-Cy5 (peptide)
peptide: [PEG5″]YGRKKRRQRR-Cy5
notes: Control without the yleaf anchor; also called blank of PEG5-TAT-Cy5; control with no anchor ligand peptide
- binding result [8]: no binding (tested: 50 nM)
